T1: human DLL3 (immobilized human DLL3 or h293-hDLL3 cells) (human, UniProt Q9NYJ7 27-492, limits assumed)
T1 construct: the sentence says 'immobilized human DLL3 or h293-hDLL3 cells'
T1 sequence: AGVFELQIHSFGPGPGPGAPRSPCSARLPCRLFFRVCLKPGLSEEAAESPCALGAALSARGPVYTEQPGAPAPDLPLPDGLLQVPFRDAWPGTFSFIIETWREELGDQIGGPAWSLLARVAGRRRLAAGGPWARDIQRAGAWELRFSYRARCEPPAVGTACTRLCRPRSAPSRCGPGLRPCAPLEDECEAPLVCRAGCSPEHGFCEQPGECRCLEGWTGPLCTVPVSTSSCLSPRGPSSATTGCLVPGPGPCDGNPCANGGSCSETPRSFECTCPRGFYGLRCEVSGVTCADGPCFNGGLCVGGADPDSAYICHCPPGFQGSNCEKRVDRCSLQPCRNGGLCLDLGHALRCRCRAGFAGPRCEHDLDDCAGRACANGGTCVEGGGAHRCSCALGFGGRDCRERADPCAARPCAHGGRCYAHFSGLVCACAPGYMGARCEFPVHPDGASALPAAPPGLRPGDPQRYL

B1: SC16.78 (antibody, V domains shown)
VH: EVKLVESGGGLVKPGGSLKLSCAASGFTFGRYVMSWVRQTPEKKLEWVASITSGGTTYYPDSVKGRFTISRDNARNILYLQMSSLRSEDTAMYYCARVYYHYDDIFAYWGQGTLVTVSA
VL: DIKMTQSPSSMYASLGERVTITCKASQDINSYLSWFQQKPGRSPKTLIYRANRLVDGVPSRFSGSGSGQDYSLTISSLDYEDMGIYYCLQYDEFPFTFGSGTKLEIK
notes: murine mAb; variable regions only
B2: SC16.106 (antibody, V domains shown)
VH: QVQLKQSGPGLVAPSQSLFITCTVSGFSLTSYEINWVRQPPGKGLEWLGVIWTGGSTNYNSALISRLSISKDNSKSLVFLKMNSLQTDDTAIYYCVRGVYAMDYWGQGTSVTVSS
VL: DIKMTQSPSSMYASLGERVTITCKASQDINSYLSWFQQKPGKSPKTLIYRANRLVDGVPSRFSGSGSGQDYSLTISSLEYEDMGIYYCLQYDEFPFTFGSGTKLEIK
notes: as for B1
B3: SC16.111 (antibody, V domains shown)
VH: EVQLQQSGPELEKPGASVKISCKASGYSFTGYNMNWVKQSNGKSLEWIGNIDPYYGGSSYKQKFEGKATLTVDKSSSTAYMQLKSLTSEDSAVYYCARGGSNFFDYWGQGTTLTVSS
VL: DIQMTQSPASLAASVGETVTITCRASENIYYSLAWYQQKQGKSPQLLIYNANSLEDGVPSRFSGSGSGTQYSMKINSMQPEDTATYFCKQTYDVPLTFGAGTKLELK
notes: as for B1
B4: SC16.84 (antibody, V domains shown)
VH: EVQLQQSGPELVKPGASMKISCKASGYSFTGYTMNWVKQSHGKNLEWIGLINPYNGGTTYNQKFKGKATLTVDKSSSTAYMELLSLTSEDSAVYYCALGYYGNYRRYFDVWGAGTTVTVSS
VL: DIQMTQSPSSLSASLGGKVTITCKASQDIKKYIAWYQHKPGKGPRLLIHYTSTLEPGIPSRFSGSGSGRDYSFSISNLEPEDIATYYCLQYDILWTFGGGTKLEIK
notes: as for B1
B5: SC16.79 (antibody, V domains shown)
VH: EVQLQQSGPELVKPGASVKISCKTSGYTFTEYTMHWVKQSHGKSLEWIGGINPNNGGTSYNQKFKGKATLTVDKSSSTAYMELRSLTSEDSAVYYCARGPAWFAYWGQGTLVTVSA
VL: DIVMSQSPSSLAVSAGEKVTMSCKSSQSLLNSRTRKNYLAWYQQKPGQSPKLLIYWASTRESGVPDRFTGSGSGTDFTLTISSVQAEDLAVYYCKQSYNLYTFGGGTKLKIK
notes: as for B1
B6: SC16.72 (antibody, V domains shown)
VH: EVQLQQSGPELVKPGASVKMSCKASGYTFTSYVMHWVKQKPGQGLEWIGYINPYNDGTKYNEKFKGKATLTSDKSSSTAYMELSSLTSEDSAVYYCARLRSRAMDYWGQGTSVTVSS
VL: ENVLTQSPAIMSASLGEKVTMSCRASSSVNYMSWYQQKSDASPKLWIYYTSNLAPGVPARFSGSGSGNSYSLTISSMEGEDAATYYCQQFTSSPYTFGGGTKLEIK
notes: as for B1
B7: SC16.113 (antibody, V domains shown)
VH: DVKLVESGGGLVKPGGSLKLSCAASGFTFSSYTMSWVRQTPEKRLEWVATISSGGSYPYYPDSVKGRFTISRDNAKNTLYLQMSSLKSEDTAMYYCTRDVYDGYSYWGQGTTLTVSS
VL: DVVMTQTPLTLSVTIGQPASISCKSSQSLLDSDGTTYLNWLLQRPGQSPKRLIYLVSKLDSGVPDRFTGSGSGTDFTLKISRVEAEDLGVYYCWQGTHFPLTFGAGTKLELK
notes: as for B1
B8: SC16.80 (antibody, V domains shown)
VH: EVQLQQSGPELVKPGGSKKISCKASGYSFTGYSMNWVKQSHGKNLEWIGLINPYSGGTIYNQKFKGKATLTVDKSSSTAYMELLSLTSEDSAVYYCARRSDYPLVYWGQGTLVTVSA
VL: ETTVTQSPASLSMAIGEKVTIRCITSTDIDDDMIWYQQKPGEPPKLLISEGNTLRPGVPSRFSSSGYGTDFVFTIENMLSEDVADYYCLKRDDLPYTFGGGTQVEIK
notes: as for B1
B9: SC16.103 (antibody, V domains shown)
VH: QVTLKESGPGILKPSQTLSLTCSFSGFSLSTSGMGIGWIRQPSGKGLEWLAHIWWDDDKYYNPSLKSQLTISKDSSRNQVFLKITSVDTADTATYYCARRGTAYYFDYWGQGTTLTVSS
VL: DIVLTQSPASLAVSLGQRATISCRASKSVSTSGYSYMHWYQQKPGQPPKLLIYLASNLESGVPARFSGSGSGTDFTLNIHPVEEEDAATYYCQHSRELPLTFGAGTKLELK
notes: as for B1
B10: SC16.73 (antibody, V domains shown)
VH: QVQLQQSGAELMKPGASVKISCKANGYTFSSYWIEWLRQRPGHGLEWIGEILPGSDNSNYNEKFKGKATFTADTSSNTAYMQLSSLTSEESAVYYCTRGLRRDGSYYYVMEHWGQGTSVTVSS
VL: DIQMTQSPSSLSASLGERVSLTCRASQDIGYSLNWLQQEPDGTIKRLIYATSSLDSGVPKRFSGSRSGSDYSLTISSLESEDFVDYYCLQYASSPWTFGGGTKLEIK
notes: as for B1
B11: SC16.110 (antibody, V domains shown)
VH: EVQLQQSGPGLVRTGASVKISCKASGYSFTGYYMHWVKQSHGKSLEWIGYISCYNGATTYNQNFKGKATFIVDTSSSTAYMQFNSLTSEDSAVYYCARSDGGHAMDYWGQGTSVTVSS
VL: NIVMTQTPKFLLVSAGDRVTITCKASQSVSNDVAWYQQKPGQSPKLLIYYASNRYTGVPDRFTGSGYGTDFTFTISTVQAEDLAVYFCQQDYSSPPTFGGGTKLEIK
notes: as for B1
B12: SC16.67 (antibody, V domains shown)
VH: EVQLVETGGGLVQPKGSLKLSCAVSAFTFTTYAMNWVRQAPGKGLEWVARIRNKSNNYATYYADSVKDRFTISRDDSQSMLYLQMNNLKIEDTAMYYCVFYYDYVYWGQGTLVTVSA
VL: QAVVTQESALTTSPGETVTLTCRSSTGAVTTSNYANWIQEKPDHLFTGLIGGTNNRAPGVPARFSGSLIGDKAALTITGAQTEDEAIYFCGLWYSNHLVFGGGTKLTVL
notes: as for B1
B13: SC16.88 (antibody, V domains shown)
VH: QVQLQQSGAELARPGASVKLSCKASGYTCTSYWMQWVKQRPGQGLEWIGAIYPGDGDTRYTQKFKGKATLTADKSSSTAYMQLSSLASEDSAVYYCARGRRTEAWFAYWGQGTLVTVSA
VL: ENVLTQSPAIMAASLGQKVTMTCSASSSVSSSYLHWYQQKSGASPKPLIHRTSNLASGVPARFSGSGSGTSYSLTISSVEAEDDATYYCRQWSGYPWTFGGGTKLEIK
notes: as for B1
B14: SC16.109 (antibody, V domains shown)
VL: QIVLTQSPAIMSASPGEKVTMTCSASSSVSYMYWYQQKPGSSPRLLIYDTSNLASGVPVRFSGSGSGTSFSLTISRMEAEDTATYYCQEWSGNPLTFGDGTKLELK
V domain: QIQLVQSGPELKKPGETVKISCKASGYTFTNYGMNWVKQAPGKGLKWMGWINTYTGEPAYADDFKGRFAFSLETSASAAYLQINNLKNEDTATFFCANMRPTRGFAYWGQGTLGTVSA
notes: as for B1
B15: SC16.107 (antibody, V domains shown)
VH: EVQLQQSGPELVKPGASVKMSCKASGYTFTNYVMHWVKQKPGQGLEWIGYINPYNDGTKYNEKFKGKATLTSDKSSTTAYMALSSLTSEDSAVYYCAVAYYSNWGFAYWGQGTLVTVSA
VL: DIVMTQSHKFMSTSVGDRVSITCKASQDVNTAVGWYQQKPGQSPKLLIYSASYRYTGVPDRFTGSGSGTDFTFTISSVQAEDLAVYYCQQHYSSPYTFGGGTKVEIK
notes: as for B1
B16: SC16.139 (antibody, V domains shown)
VH: EVQLQQSGPELVKPGASVKMSCKASGYTFTNYVMHWVKQKPGQGLEWIGYINPYNDGTKYNEKFKGKATLTSDKSSTTAYMALSSLTSEDSAVYYCAVAYYSNWGFAYWGQGTLVTVSA
VL: DIVMTQSHKFMSTSVGDRVSITCKASQDVNTAVGWYQQKPGQSPKLLIYSASYRYTGVPDRFTGSGSGTDFTFTISSVQAEDLAVYYCQQHYSSPYTFGGGTKLEIK
notes: as for B1
B17: SC16.104 (antibody, V domains shown)
VH: QVQLKESGPDLVQPSQTLSLTCTVSGFSLTFYGVHWVRQPPGKGLEWVGTMGWDDKKYYNSALKSRLSISRDTSKNQVFLKLSSLQTEDTAMYYCTRGGTGFDYWGQGTTLTVSS
VL: QIVLSQSPAILSASPGEKVTMTCRASSSVSYIHWYRQKPGSSPKPWIYATSNLASGVPARFSGSGSGTSYSLTISRVEAEDAATYYCQQWSSNPPTFGAGTKLELK
notes: as for B1
B18: SC16.105 (antibody, V domains shown)
VH: QVQLQQPGAELVKPGASVKLSCKASGYTFTSYWMHWVKQRPGQGLEWIGVINPSNGRTNYNEKFKSKATLTVDKSSSTAYMQLSSLTSEDSAVYYCARRRELGTLYAMDYWGQGTSVTVSS
VL: DIVMTQSHKFMSTSVGDRVSITCKASQDVGTAVAWYQQKPGQSPKLLIYWASIRHTGVPDRFTGSGSGTDFTLTISNVQSEDLADYFCQQYSSYPLTFGAGTKLELK
notes: as for B1
B19: SC16.81 (antibody, V domains shown)
VH: QVQLKESGPVLVAPSQSLSITCTVSGFSLTSYGVHWVRQPPGKGLEWLGVIWAGGSTNYNSALMSRLSISKDNSKSQVFLKMNSLQTDDTAMYYCAKQGNFYAMDYWGQGTSVTVSS
VL: QIVLTQSPAIMSASLGERVTLTCTASSSVSSSYLHWYQQKPGSSPKLWIYSTSNLASGVPTRFSGSGSGTSYSLRISSMEAEDAATYYCHQYNRSPLTFGAGTKLELK
notes: as for B1
B20: SC16.101 (antibody, V domains shown)
VL: QIVLTQSPAIMSASLGERVTMTCTASSSVSSSYLHWYQQKPGSSPKLWIYSTSNLASGVPARFSGSESGTSYSLTISNMEAEDAATYYCHQYHRSPFTFGSGTKLEIK
V domain: QVTLKESGPGILQPSQTLSLTCSFSGFSLSTSGMGVGWIRQPSGKGLEWLAHIWWDDVKRYNPALKSRLTISKDASSSQVFLKIASVDTAETATYYCAHILDRAYYFDYWGQGTTLTVTS
notes: as for B1

This note sets out measurements from patent publication US20180044415A1 (AbbVie / Abbott, published 2018).

The assay addresses T1, human DLL3 (immobilized human DLL3 or …). Kind of assay: hybridoma screening on immobilized human DLL3 or on h293-hDLL3 cells.
Regarding B1, the binding result is reported as “binds”. The entry for B2 is “binds”; for B3 it is “binds”; for B4 it is “binds”. To B5 belongs “binds”; to B6, “binds”; to B7, “binds”. The entry for B8 is “binds”; for B9 it is “binds”; for B10 it is “binds”.

For the molecule B11, the binding result was “binds”. With B12, the binding result was “binds”.

Regarding B13, the binding result is given as “binds”. The entry for B14 is “binds”; for B15 it is “binds”; for B16 it is “binds”. To B17 belongs “binds”. The entry for B18 is “binds”; for B19 it is “binds”; for B20 it is “binds”.
